Assay [1] deals with Balb/C mice subjected to lethal endotoxemia. Kind of assay: Animal model of lethal endotoxemia (LPS), animal survival. The settings on record: i.p., 2 h post onset. It is filed as in vivo, mouse. The procedure:
This study was conducted in accordance with policies of the NIH Guide for the Care and Use of Laboratory Animals and approved by the IACUC of the Feinstein Institute for Medical Research, Manhasset, New York, USA. To evaluate the role of TN in lethal sepsis, Balb/C mice (male, 7-8 weeks, 20-25 g) were subjected to lethal endotoxemia or sepsis induced by cecal ligation and puncture (CLP) as previously described. Briefly, the cecum of Balb/C mice was ligated at 5.0 mm from the cecal tip, and then punctured once with a 22-gauge needle. At 30 min post CLP, all animals were given a subcutaneous dosing of imipenem/cilastatin (0.5 mg/mouse) (Primaxin, Merck & Co., Inc., West Point, Pa.), and resuscitation with normal sterile saline solution (20 ml/kg). Recombinant TN or anti-TN polyclonal or monoclonal IgGs were intraperitoneally administered into endotoxemic or septic mice at indicated doses and time points, and animal survival rates were monitored for up to two weeks. To evaluate the role of TN in lethal sepsis, a few breeding pairs of the heterozygous TN (also called “CLCE3B”)-KO mice were obtained from the Jackson Laboratory (Stock No. 027554, Bar Harbor, ME, USA), and bred to produce homozygous TN KO as well as wild-type littermates. […]

In assay [2] the test system is Balb/C mice subjected to CLP sepsis. Kind of assay: Animal model of lethal sepsis (CLP), animal survival. The settings on record: for protection against lethal sepsis: i.p., 2 h post onset. The format is in vivo, mouse. On the procedure: This study was conducted in accordance with policies of the NIH Guide for the Care and Use of Laboratory Animals and approved by the IACUC of the Feinstein Institute for Medical Research, Manhasset, New York, USA. To evaluate the role of TN in lethal sepsis, Balb/C mice (male, 7-8 weeks, 20-25 g) were subjected to lethal endotoxemia or sepsis induced by cecal ligation and puncture (CLP) as previously described. Briefly, the cecum of Balb/C mice was ligated at 5.0 mm from the cecal tip, and then punctured once with a 22-gauge needle. At 30 min post CLP, all animals were given a subcutaneous dosing of imipenem/cilastatin (0.5 mg/mouse) (Primaxin, Merck & Co., Inc., West Point, Pa.), and resuscitation with normal sterile saline solution (20 ml/kg). Recombinant TN or anti-TN polyclonal or monoclonal IgGs were intraperitoneally administered into endotoxemic or septic mice at indicated doses and time points, and animal survival rates were monitored for up to two weeks. To evaluate the role of TN in lethal sepsis, a few breeding pairs of the heterozygous TN (also called “CLCE3B”)-KO mice were obtained from the Jackson Laboratory (Stock No. 027554, Bar Harbor, ME, USA), and bred to produce homozygous TN KO as well as wild-type littermates. Age- and sex-matched wild-type (WT) or TN knockout (KO) C57/B6 mice were then used to induce CLP sepsis via identical procedures, and animal survival rates were compared for more than two weeks.

B1: murine TN: prokaryotes-derived (E. coli) recombinant murine tetranectin (protein)
chain: ESPTPKAKKAANAKKDLVSSKMFEELKNRMDVLAQEVALLKEKQALQTVCLKGTKVNLKCLLAFTQPKTFHEASEDCISQGGTLGTPQSELENEALFEYARHSVGNDANIWLGLNDMAAEGAWVDMTGGLLAYKNWETEITTQPDGGKAENCAALSGAANGKWFDKRCRDQLPYICQFAIV
As to B1, in assay [1], the “protection against lethal endotoxemia” value is “reproducible and dose-dependent protection”. Further, the “protection in sepsis at sub-physiological doses” value in assay [2] (0.1 mg/kg) is on record as “conferred reproducible protection”. In addition, the “protection in sepsis at super-physiological doses” value in assay [2] (1.0 mg/kg) is reported as “not associated with any protective effect”. Besides, in assay [2], the “protection against lethal sepsis” value is “reproducible and dose-dependent protection”.

B2: human TN: eukaryote-derived recombinant human tetranectin expressed in HEK293 kidney cells (ACROBiosystems) (protein, UniProt P05452 22-202, looked up)
Tetranectin: EPPTQKPKKIVNAKKDVVNTKMFEELKSRLDTLAQEVALLKEQQALQTVCLKGTKVHMKCFLAFTQTKTFHEASEDCISRGGTLGTPQTGSENDALYEYLRQSVGNEAEIWLGLNDMAAEGTWVDMTGARIAYKNWETEITAQPDGGKTENCAVLSGAANGKWFDKRCRDQLPYICQFGIV
With B2, the “protection against lethal endotoxemia” value in assay [1] was “reproducible and dose-dependent protection”. Further, the “protection against lethal sepsis” value in assay [2] is “reproducible and dose-dependent protection”.

These data come from patent publication US12497446B2, “Tetranectin-targeting monoclonal antibodies to fight against lethal sepsis and other pathologies” (The Feinstein Institutes For Medical Research, priority 2019, dated 2025).
